From US20220144956A1 (published 2022) come the findings set out here.

Substitutions are numbered along the chain they refer to.

The chains are these.
B1: H1 L1.29 XENP34592 (antibody, V domains shown)
VH: QLQVQESGPGLVKPSETLSLTCTVSGGSISNSYFSWGWIRQPPGKGLEWIGSFYYGEKTYYNPSLKSRATISIDTSKSQFSLKLSSVTAADTAVYYCPRGPTMIRGVIDSWGQGTLVTVSS
VL: EIVLTQSPATLSLSPGERATLSCRASQSVRSYLAWYQQKPGQAPRLLIYDASNRATGIPDRFSGSGSGTDFTLTISSLEPEDFAVYYCQQRSNWPPTFGQGTKVEIK
B2: H1 L1.20 XENP34583 (antibody, V domains shown)
VH: B1 VH
VL: B1 VL with D50E, D60A
B3: H1 L1.31 XENP34594 (antibody, V domains shown)
VH: B1 VH
VL: B1 VL with D60A, S77R
B4: H1 L1.37 XENP34600 (antibody, V domains shown)
VH: B1 VH
VL: B1 VL with D60A, R91K
B5: H1 L1.34 XENP34597 (antibody, V domains shown)
VH: B1 VH
VL: B1 VL with D60A, E79Q, P80S
B6: H1 L1.30 XENP34593 (antibody, V domains shown)
VH: B1 VH
VL: B1 VL with D60A, D70E
B7: H1 L1.43 XENP34606 (antibody, V domains shown)
VH: B1 VH
VL: B1 VL with D60A, S92N
B8: H1 L1.24 XENP34587 (antibody, V domains shown)
VH: B1 VH
VL: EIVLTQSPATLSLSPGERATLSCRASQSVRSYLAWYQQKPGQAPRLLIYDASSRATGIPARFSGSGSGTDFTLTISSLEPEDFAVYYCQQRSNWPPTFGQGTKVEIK
B9: H1.86 L1 XENP34542 (antibody, V domains shown)
VH: B1 VH with M103T
VL: B1 VL with D60A
B10: H1.59 L1 XENP34515 (antibody, V domains shown)
VH: B1 VH with K58N
VL: B1 VL with D60A
B11: H1.58 L1 XENP34514 (antibody, V domains shown)
VH: B1 VH with K58D
VL: B1 VL with D60A
B12: H1.73 L1 XENP34529 (antibody, V domains shown)
VH: B1 VH with I73V
VL: B1 VL with D60A
B13: H1.43 L1 XENP34499 (antibody, V domains shown)
VH: B1 VH with S52T
VL: B1 VL with D60A
B14: H1.75 L1 XENP34531 (antibody, V domains shown)
VH: B1 VH with K83Q
VL: B1 VL with D60A
B15: H1.40 L1 XENP34496 (antibody, V domains shown)
VH: B1 VH with I50V
VL: B1 VL with D60A
B16: H1.69 L1 XENP34525 (antibody, V domains shown)
VH: B1 VH with K66Q
VL: B1 VL with D60A
B17: H1.67 L1 XENP34523 (antibody, V domains shown)
VH: B1 VH with N62S
VL: B1 VL with D60A
B18: H1.62 L1 XENP34518 (antibody, V domains shown)
VH: B1 VH with Y60F
VL: B1 VL with D60A
B19: H1.42 L1 XENP34498 (antibody, V domains shown)
VH: B1 VH with S52N
VL: B1 VL with D60A
B20: H1.53 L1 XENP34509 (antibody, V domains shown)
VH: B1 VH with Y55H
VL: B1 VL with D60A
B21: H1.55 L1 XENP34511 (antibody, V domains shown)
VH: B1 VH with G56S
VL: B1 VL with D60A
B22: H1.72 L1 XENP34528 (antibody, V domains shown)
VH: B1 VH with A69V
VL: B1 VL with D60A
B23: H1.56 L1 XENP34512 (antibody, V domains shown)
VH: B1 VH with E57G
VL: B1 VL with D60A
B24: H1.65 L1 XENP34521 (antibody, V domains shown)
VH: B1 VH with Y60S
VL: B1 VL with D60A
B25: H1.51 L1 XENP34507 (antibody, V domains shown)
VH: B1 VH with Y54N
VL: B1 VL with D60A
B26: H1.68 L1 XENP34524 (antibody, V domains shown)
VH: B1 VH with K66E
VL: B1 VL with D60A
B27: H1.54 L1 XENP34510 (antibody, V domains shown)
VH: B1 VH with Y55S
VL: B1 VL with D60A
B28: H1.57 L1 XENP34513 (antibody, V domains shown)
VH: B1 VH with E57S
VL: B1 VL with D60A
B29: H1.64 L1 XENP34520 (antibody, V domains shown)
VH: B1 VH with Y60N
VL: B1 VL with D60A
B30: H1.71 L1 XENP34527 (antibody, V domains shown)
VH: B1 VH with A69F
VL: B1 VL with D60A
B31: H1.39 L1 XENP34495 (antibody, V domains shown)
VH: B1 VH with P42H
VL: B1 VL with D60A
B32: H1.45 L1 XENP34501 (antibody, V domains shown)
VH: B1 VH with S52Y
VL: B1 VL with D60A
B33: H1.44 L1 XENP34500 (antibody, V domains shown)
VH: B1 VH with S52V
VL: B1 VL with D60A
B34: H1.46 L1 XENP34502 (antibody, V domains shown)
VH: B1 VH with F53I
VL: B1 VL with D60A
B35: H1.41 L1 XENP34497 (antibody, V domains shown)
VH: B1 VH with S52E
VL: B1 VL with D60A
B36: H1.47 L1 XENP34503 (antibody, V domains shown)
VH: B1 VH with F53V
VL: B1 VL with D60A
B37: H1.76 L1 XENP34532 (antibody, V domains shown)
VH: B1 VH with A90E
VL: B1 VL with D60A
B38: H1.60 L1 XENP34516 (antibody, V domains shown)
VH: B1 VH with K58S
VL: B1 VL with D60A
B39: H1.74 L1 XENP34530 (antibody, V domains shown)
VH: B1 VH with S78N
VL: B1 VL with D60A
B40: H1.49 L1 XENP34505 (antibody, V domains shown)
VH: B1 VH with Y54H
VL: B1 VL with D60A
B41: H1.70 L1 XENP34526 (antibody, V domains shown)
VH: B1 VH with S67G
VL: B1 VL with D60A
B42: H1.63 L1 XENP34519 (antibody, V domains shown)
VH: B1 VH with Y60H
VL: B1 VL with D60A
B43: H1.66 L1 XENP34522 (antibody, V domains shown)
VH: B1 VH with N62A
VL: B1 VL with D60A
B44: H1.61 L1 XENP34517 (antibody, V domains shown)
VH: B1 VH with T59I
VL: B1 VL with D60A

T1 sequence (P37173 23-166): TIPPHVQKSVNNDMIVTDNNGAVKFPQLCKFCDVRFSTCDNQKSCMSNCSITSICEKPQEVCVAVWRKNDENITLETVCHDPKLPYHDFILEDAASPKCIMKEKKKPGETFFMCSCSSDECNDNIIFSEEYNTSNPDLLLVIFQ

One experiment addresses T1, human TGFßRII (antigen of the Octet experiments) (human, UniProt P37173 23-166). Nature of the experiment: BLI (Octet). On the technique in general: BLI is a label-free optical method that tracks binding on a fibre tip over time.
The term Kd denotes the constant that tells how readily two partners part at equilibrium. As to B1, the Kd came out at 0.589 nM.

The molecule B2 had a Kd of 2.24 nM.

Regarding B3, binding was put at a Kd of 0.706 nM.

For the molecule B4, the Kd turned out to be 2.87 nM. This Kd is about 4.1-fold higher than that of the molecule before.

B5 gave a Kd of 1.61 nM.

In the case of B6, the dissociation constant Kd was 0.668 nM.

As for B7, the Kd is 1.08 nM.

The molecule B8 showed a Kd of 0.644 nM.

The target in a further experiment is T1, human TGFßRII (antigen of the Octet …). The experiment is described as follows: BLI (Octet). This is another data set of the same source.
B9: binding was put at a Kd of 0.0662 nM.

The target is the same in the next experiment. Nature of the experiment: BLI (Octet). The source holds these as a separate data set.
Turning to B10, the Kd was 0.507 nM.

The molecule B11 displayed a Kd of 2.49 nM.

For the molecule B12, the Kd worked out at 0.713 nM.

The molecule B13 returned a Kd of 0.627 nM. The Kd values of the last two molecules are within 1.5-fold of each other.

The molecule B14 returned a Kd of 1.18 nM.

Regarding B15, the Kd was 0.338 nM.

On to B16, for which the Kd is 1.41 nM.

In the case of B17, the Kd was found to be 1.95 nM.

B18: the Kd turned out to be 1.35 nM. This Kd and that of the molecule before are within 1.5-fold of each other.

B19 returned a Kd of 2.59 nM. Against the preceding molecule, the Kd is about 1.9-fold higher.

Molecule B20 registered a Kd of 0.366 nM.

Molecule B21 returned a Kd of 0.348 nM.

B22 returned a Kd of 0.42 nM.

In turn, B23 yielded a Kd of 0.203 nM.

B24 displayed a Kd of 15.1 nM. This Kd lies about 74-fold higher than the previous one.

In the case of B25, the Kd was 35.6 nM.

Regarding B26, the Kd came to 1.5 nM. This Kd lies about 24-fold lower than the previous one.

With B27, the Kd came to 0.666 nM.

Regarding B28, the Kd was found to be 7.71 nM.

Turning to B29, the Kd was 5.37 nM.

The molecule B30 yielded a Kd of 0.588 nM.

The molecule B31 registered a Kd of 0.425 nM.

Molecule B32 yielded a Kd of 1.01 nM. This Kd is about 2.4-fold higher than that of the molecule before.

On to B33, for which the Kd came out at 2.95 nM.

As to B34, the dissociation constant (Kd) amounted to 3.2 nM.

B35 yielded an equilibrium dissociation constant (Kd) of 18.9 nM. This Kd is about 5.9-fold higher than that of the molecule before.

B36 displayed an equilibrium dissociation constant (Kd) of 0.677 nM.

Consider B37, for which the affinity, expressed as Kd, was 0.829 nM.

The molecule B38 returned an equilibrium dissociation constant (Kd) of 3.86 nM.

Consider B39, for which binding was characterised by a dissociation constant (Kd) of 0.771 nM.

B40 came in with a Kd of 0.338 nM. This Kd lies about 2.3-fold lower than the previous one.

Molecule B41 gave a Kd of 0.789 nM.

B42: the affinity, expressed as Kd, was 5.28 nM.

With B43, the equilibrium dissociation constant (Kd) is 0.623 nM. This Kd is about 8.5-fold lower than that of the molecule before.

Molecule B44 came in with an equilibrium dissociation constant (Kd) of 0.791 nM.
